Laboratory results: US9926349B2, “Chimeric molecule useful in immunotherapy for leishmaniasis, which includes a fragment of the PFR1 protein of leishmania infantum with specific immunodominant epitopes” (priority 2011, dated 2018)

Test system: alveolar macrophages of naive rat
Experiment: Nitric oxide production by alveolar macrophages stimulated with recombinant protein
Format: cell-based
Settings: for NO activation in the presence of polymyxin B: plus polymyxin B (LPS activity-induced inhibitor)
Excerpt: FIG. 2. Measurement of Nitric Oxide (NO) concentration in the supernatant of macrophages culture stimulated with lipopolysaccharide (LPS); lipopolysaccharide+polymyxin B (LPS+PolB); purified PFR-1 protein (PFR-1); purified PFR-1 protein+polymyxin B (PFR1+PolB); L-NG-monomethyl arginine citrate (LNMMA); purified PFR-1 protein+L-NG-monomethyl arginine citrate (PFR1+LNMMA). Concentration is expressed in μmol/liter.
PFR1 protein of Leishmania infantum is encompassed within the family of characteristic proteins of paraflagellar rod proteins from kinetoplastids. In FIG. 1, we show the PFR1 recombinant protein of L. infantum expressed in a prokaryotic expression system and purified by affinity chromatography. […] This activation of nitric oxide production confers to the aforementioned protein a relevant immunological feature because NO favors the clearance of the amastigotes of Leishmania that multiply within the host macrophages. In FIG. 2, the values of NO production by these alveolar macrophages are collected by stimulating them with LPS (control) and the PFR1 protein.

lipopolysaccharide [LPS, reference compound]
NO activation in the presence of polymyxin B: inhibited by the presence of polymyxin B

B1: PFR1 protein: PFR1 recombinant protein of L. infantum expressed in a prokaryotic expression system and purified by affinity chromatography (protein, listed as Leishmania infantum)
chain: MMTPEDATGLEAARKQKIHNLKLKTACLENEELVQELHISDWSETQRQKLRGAHEKGEELLASVEVGTKWNLMEAYDLAKLMRVCGLEMSQRELYRPEDKPQFMDIIGVKKVLQDLRQNRNKTRVVSFTQLIDNSIAKMEKVEEELRRSQLDATQLAQVPTRTVKMMEDIMNATQIQNALASTDDQMQTQLAQLEKTNEIQNVAMHDGETQVAEEQMWTKVQLQERLIELLKDKFGLIGKCEEENAQFKEIYEVQKQANQETSQMKDAKRRLRQRCETDLKHIQDAIQKADLEDAEAVKRYPRNKERSERAIKENEEMQEEAWNKIQDLERQLQNLGTDRFDEVKRRIEEVDREEKRRVENAQFLEIAAQHKKLLELTVYNCDLAMRCTGLVEELVSEGCAGVKARYDKTNQDLAALRLEVHKEHLEYFRMLYLTLGSLIYKKEKRLEEIDRNIRLAHIQLEFCVETFDPNAKKHADMKKELYRLRQGVEEELAMLKEKQAAALDDFKESEEALDAAGIEFSHPVDENNEEVLTRRSKMVEYKSHLTKEEEVRIAAEREEIKRARLLRSGGESAAAQITSGSMNADYAASAQLEL
modifications: /mol_type=”protein“ /organism=”Leishmania infantum“; REGION 1..595 ”PFR1 protein aminoacids“; REGION 160..595 ”SEQ ID No 9“; REGION 160..548 ”SEQ ID No 10“; REGION 160..385 ”SEQ ID No 11“; PEPTIDE 103..113 ”SEQ ID No 1“; PEPTIDE 150..159 ”SEQ ID No 2“; PEPTIDE 165..173 ”SEQ ID No 4“; PEPTIDE 204..212 ”SEQ ID No 5“; PEPTIDE 222..230 ”SEQ ID No 6“; PEPTIDE 373..382 ”SEQ ID No 3“
production of nitric oxide (NO) by alveolar macrophages (naive rat alveolar macrophages stimulated with the protein): ability to activate the production of nitric oxide (NO)
NO activation in the presence of LNMMA (plus L-NG-monomethyl arginine, nitric oxide synthase inhibitor): inhibits the NO activation induced by the PFR1 protein
NO activation in the presence of polymyxin B: unlike the one detected for PFR1 protein, the activation observed for LPS is inhibited by the presence of polymyxin B
